Columns and labels:
[1] = target: T1, proprotein convertase subtilisin/kexin type-9 (PCSK9), His-tagged (UniProt Q8NBP7 31-692); assay: ELISA; CircuLex in vitro PCSK9-LDLR binding assay kit; plate pre-coated with recombinant LDLR-AB domain; peptide (0.1-100 uM) in reaction buffer, then His-tagged PCSK9 added; 2 h at room temperature; detected with biotinylated anti-His-tag antibody, HRP-streptavidin and TMB, absorbance at 450 nm; conditions: both partners purified
T1 construct: PCSK9, recombinant His-tagged protein of the kit; The functional rows use this molecule; also called His-tagged PCSK9
T1 sequence (Q8NBP7 31-692): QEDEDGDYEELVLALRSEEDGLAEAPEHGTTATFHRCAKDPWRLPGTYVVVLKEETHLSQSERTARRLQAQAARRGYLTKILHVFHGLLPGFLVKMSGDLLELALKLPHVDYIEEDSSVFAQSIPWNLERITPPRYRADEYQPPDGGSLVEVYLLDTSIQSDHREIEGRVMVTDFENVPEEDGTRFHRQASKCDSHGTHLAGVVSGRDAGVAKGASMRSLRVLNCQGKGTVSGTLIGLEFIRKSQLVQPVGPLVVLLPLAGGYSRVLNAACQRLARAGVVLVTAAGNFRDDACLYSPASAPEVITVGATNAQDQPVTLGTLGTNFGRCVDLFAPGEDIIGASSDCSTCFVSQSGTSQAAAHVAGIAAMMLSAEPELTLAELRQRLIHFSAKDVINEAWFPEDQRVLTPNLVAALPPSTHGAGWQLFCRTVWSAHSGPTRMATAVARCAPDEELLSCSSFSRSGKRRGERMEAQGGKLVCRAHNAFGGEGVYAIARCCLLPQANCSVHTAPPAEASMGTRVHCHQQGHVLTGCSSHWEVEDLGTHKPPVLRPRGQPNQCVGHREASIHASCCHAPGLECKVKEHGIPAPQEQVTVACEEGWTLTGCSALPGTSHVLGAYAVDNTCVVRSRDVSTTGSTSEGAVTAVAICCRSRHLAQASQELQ

[2] = target: 3-hydroxy-3-methylglutaryl coenzyme A reductase (HMGCoAR), catalytic domain; assay: cell-based or functional assay
3-hydroxy-3-methylglutaryl coenzyme A reductase (HMGCoAR), catalytic domain, sequence (P04035 whole entry, the tested form may be a part): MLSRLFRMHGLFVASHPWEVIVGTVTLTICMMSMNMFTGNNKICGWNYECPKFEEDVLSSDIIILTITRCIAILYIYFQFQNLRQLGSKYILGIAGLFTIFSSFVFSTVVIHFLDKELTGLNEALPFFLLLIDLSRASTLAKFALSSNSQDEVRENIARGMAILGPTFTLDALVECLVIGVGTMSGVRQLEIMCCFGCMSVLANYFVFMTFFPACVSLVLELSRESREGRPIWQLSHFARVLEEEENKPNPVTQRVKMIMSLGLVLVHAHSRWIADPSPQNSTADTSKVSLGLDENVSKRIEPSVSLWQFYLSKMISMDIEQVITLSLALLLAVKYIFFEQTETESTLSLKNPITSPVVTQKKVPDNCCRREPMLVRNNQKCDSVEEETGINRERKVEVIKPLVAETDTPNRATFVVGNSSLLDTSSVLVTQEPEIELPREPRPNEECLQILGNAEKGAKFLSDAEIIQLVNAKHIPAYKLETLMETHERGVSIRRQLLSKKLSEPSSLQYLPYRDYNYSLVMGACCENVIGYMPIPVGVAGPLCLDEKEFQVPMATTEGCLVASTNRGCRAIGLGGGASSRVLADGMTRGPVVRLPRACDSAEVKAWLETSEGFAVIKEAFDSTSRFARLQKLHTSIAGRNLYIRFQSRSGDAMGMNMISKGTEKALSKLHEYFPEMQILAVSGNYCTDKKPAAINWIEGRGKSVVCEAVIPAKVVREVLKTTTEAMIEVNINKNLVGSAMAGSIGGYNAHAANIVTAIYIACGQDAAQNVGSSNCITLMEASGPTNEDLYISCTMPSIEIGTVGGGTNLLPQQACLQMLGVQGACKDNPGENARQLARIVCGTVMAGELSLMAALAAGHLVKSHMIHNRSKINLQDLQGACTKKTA

Row | IC50 [1] [µM] | in vitro HMGCoAR activity (NADPH oxidation, absorbance at 340 nm, 37 °C), peptide 10-500 µM; IC50 [2] [µM] | Binder
1 | 1.3 | 147 | LILPKHSDAD (peptide from the peptic hydrolysate of lupin protein; also called parent peptide; source: synthetic peptide (GeneScript, >95% purity)) [lupin peptide P5 (LILPKHSDAD)]
2 | 1.7 | 175 | LPKHSDAD (source: synthetic peptide (GeneScript, >95% purity)) [P5-met (LPKHSDAD), metabolite of lupin peptide P5]
